Reference: PMC11659472 (Communications Biology, 2024)

Target: the molecule itself
Assay: cryo-EM structure

B1: Roseospirillum parvum LH1 αβ-polypeptide pair (complex)
chain 1: not shown
chain 2: MATTENVTSSTGLTEAEAKEFHAVYSQSAAGFLAVCAVAHVLAWMWRPFWPGAEGWVMDTAQNLTFLA
stoichiometry N: 16
